We go through one molecule from article PMC5640804.

Experiment [1] concerns the target yeast Golgi t-SNARE complex Sed5/Sec22/Bos1 with D196del Bos1, preassembled and reconstituted into acceptor liposomes (S. cerevisiae) (UniProt Q01590).
Experiment [2] has as its target yeast Golgi t-SNARE complex Sed5/Sec22/Bos1 with G176W Bos1, preassembled and reconstituted into acceptor liposomes (S. cerevisiae) (UniProt Q01590).

B1: yeast Golgi v-SNARE Bet1, reconstituted into fluorescent donor liposomes (natural protein)
chain: MSSRFAGGNAYQRDTGRTQLFGPADGSNSLDDNVSSALGSTDKLDYSQSTLASLESQSEEQMGAMGQRIKALKSLSLKMGDEIRGSNQTIDQLGDTFHNTSVKLKRTFGNMMEMARRSGISIKTWLIIFFMVGVLFFWVWIT
On to B1, for which the liposome fusion assay (NBD fluorescence), reduction in fusion against WT Bos1; still above the control without Bet1 (% reduction in fusion) amounted to 60 in experiment [1] and 30 in experiment [2].
